Test results taken from US9056892B2, “Retrograde transport peptide and use of same for delivery to central nervous system” (UNIVERSITY OF WASHINGTON, priority 2011, dated 2015).
No end group written: not given here. *: point of attachment. Biotin = O=C1N[C@H]2[C@H](CS[C@H]2CCCCC(=O)*)N1

Experiments:
[1] = Delivery to the CNS after intraperitoneal injection; type: in vivo
Excerpt: The methods described above in Example 1 were modified to explore alternative modes of delivery to intramuscular injection.

[2] = tested on: neurons in the human spinal cord; experiment: Labeling of fresh frozen human spinal cord sections by biotinylated 2404 complexed with quantum dot streptavidin; type: binding; settings: overall conclusion
Description: FIGS. 6A-6D. Photomicrographs showing TAxI-Streptavidin labels neurons in the adult human spinal cord. Steptavidin conjugated quantum dots (Qdots) were complexed with biotinylated TAxI peptide and incubated on human spinal cord tissue with anti-NeuN and anti-ChAT antibodies. FIG. 6A. Confocal micrographs of ventral root motor neurons stained immunofluorescently for NueN (prominent cytoplasmic stain) and ChAT (lighter cytoplasmic staining) and TAxI-Qdots (primarily visible in the nuclear region). FIG. 6B. High magnification images of the ventral horn stained by immunofluorescence. FIG. 6C. High magnification images of the dorsal grey matter stained by immunofluorescence. FIG. 6D. Spinal cord tissue pre-blocked with 10-fold excess of TAxI-peptide prior to immunofluorescence for NeuN and ChAT and TAxI-QDots.
The ability to target motor neurons that transport peptide-protein complexes and biologically active proteins into the spinal cord provides tremendous potential for utilizing and delivering novel therapeutics for the CNS. This Example examined whether the 2404-peptide could bind to neural elements within the fresh frozen sections of the human spinal cord. […] 2404-steptavidin labeled cells were not prominent in dorsal aspects of the spinal cord.

[3] = tested on: spinal cord motor neurons; experiment: Cre recombinase delivery into spinal cord after IM injection in Ai14 reporter mice (tdTomato expression); type: in vivo; settings: 2.5 μg into gastrocnemius, one week post-injection
Description: To have utility as a therapeutic protein delivery system, the TAxI peptide must traffic cargo without rapid degradation or sequestration. To test for TAxI-mediated delivery of active enzyme to the spinal cord, we generated a series of Cre recombinase chimeras: wild-type Cre (Cre), Cre fused to the TAxI peptide (TAxI-Cre), and Cre fused to a mutated TAxI moiety (TAxI^Q-Cre). After purification, each recombinant Cre protein was injected (2.5 μg) into the gastrocnemius of the Ai14 reporter mice. In these mice, delivery of biologically active Cre recombinase results in td-Tomato expression due the excision of a floxed stop-codon.[27] One week post-injection, confocal microscopy was used to image spinal cords isolated after perfusion fixation. […] Furthermore, td-Tomato^+-cells projected into intermediate lamina of the spinal cord as well as into interneuron polls within multiple longitudinal segments, similar to efferent motor neurons (inset).
The coding sequence for Cre recombinase was obtained from the University of Washington Yeast Resource Center. The TAxI peptide sequence was added to the 5-prime end and both TAxI-Cre and wild-type Cre were subcloned into pRSETb (Invitrogen). To allow for expression and purifaction, each plasmid was transformed into BL21(D3)pLysS and grown in media supplemented with IPTG/X-gal (Promega). […]

## TSTAPHLRLRLTSR [Clone 4042]
[1]
  delivery to the CNS: robust delivery to the CNS

## ASGAQAR (GGCASGAQARCGG; disulfide (positions not given here); not fully specified (N-terminus, bridges); also: cyclic, mode not given here) [Clone 2404Q]
[1]
  delivery to the CNS: robust delivery to the CNS

## QSQSQMR (Biotin-SACQSQSQMRCGGG; disulfide (positions not given here); not fully specified (bridges); also: cyclized, mode not given here) [Clone 2404]
[2]
  binding and labeling of neurons in the human spinal cord: able to bind and label neurons in the human spinal cord specifically
[1]
  delivery to the CNS: robust delivery to the CNS

B1: Cre: wild-type Cre recombinase, recombinant 6×-his-tagged (protein, UniProt P06956 1-343, looked up)
Recombinase cre: MSNLLTVHQNLPALPVDATSDEVRKNLMDMFRDRQAFSEHTWKMLLSVCRSWAAWCKLNNRKWFPAEPEDVRDYLLYLQARGLAVKTIQQHLGQLNMLHRRSGLPRPSDSNAVSLVMRRIRKENVDAGERAKQALAFERTDFDQVRSLMENSDRCQDIRNLAFLGIAYNTLLRIAEIARIRVKDISRTDGGRMLIHIGRTKTLVSTAGVEKALSLGVTKLVERWISVSGVADDPNNYLFCRVRKNGVAAPSATSQLSTRALEGIFEATHRLIYGAKDDSGQRYLAWSGHSARVGAARDMARAGVSIPEIMQAGGWTNVNIVMNYIRNLDSETGAMVRLLEDGD
modifications: 6xHis tag
notes: wild-type Cre recombinase, recombinant 6×-his-tagged
[3]
  tdTomato colocalization with NeuN and ChAT: did not induce tdTomato expression in either NeuN or ChAT-positive cells
[3]; confocal microscopy
  tdTomato expression in the lumbar spinal cord: small punctuate tdTomato^+-cells
